We go through two molecules from patent US20250084169A1 (published 2025).

Read-outs that look alike come from different tables or passages of the source.

In assay [1] the target is CD19 (target of Table 9).
In assay [2] the target is T1, cynomolgus monkey Fc gamma receptor CD16 (cynomolgus monkey, UniProt Q8SPW2 17-208).
For assay [3], the target named is T2, cynomolgus monkey Fc gamma receptor CD32a (cynomolgus monkey).
The target in assay [4] is T3, cynomolgus monkey Fc gamma receptor CD32b (cynomolgus monkey).
The target of assay [5] is T1, cynomolgus monkey Fc gamma receptor CD16. The source holds these as a separate data set.
Assay [6] has as its target T2, cynomolgus monkey Fc gamma receptor …. The source holds these as a separate data set.
In assay [7] the target is T3, cynomolgus monkey Fc gamma receptor …. The source holds these as a separate data set.
Assay [8] addresses T4, recombinant human Fc gamma RIIb/c (CD32b/c) (human, UniProt P31994 46-217).
T4 sequence (looked up): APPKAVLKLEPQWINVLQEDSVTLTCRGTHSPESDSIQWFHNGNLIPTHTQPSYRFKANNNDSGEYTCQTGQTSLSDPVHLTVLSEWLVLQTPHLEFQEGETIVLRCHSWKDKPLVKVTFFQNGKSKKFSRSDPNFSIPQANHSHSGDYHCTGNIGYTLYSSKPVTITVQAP

The target of assay [9] is T5, recombinant human Fc gamma RIIIb (CD16b) (human, UniProt O75015 17-200).
In assay [10] the target is T6, recombinant human Fc gamma RIIIa (CD16a) 158F (human, UniProt P08637 17-208).
In assay [11] the target is T7, recombinant human Fc gamma RIIIa (CD16a) 158V (human, UniProt P08637 17-208).
In assay [12] the target is T8, recombinant human Fc gamma RI (CD64) (human, UniProt P12314 16-288).
The target of assay [13] is T9, recombinant human Fc gamma RIIa (CD32a) 131H (human, UniProt P12318 36-218).
T9 sequence (looked up): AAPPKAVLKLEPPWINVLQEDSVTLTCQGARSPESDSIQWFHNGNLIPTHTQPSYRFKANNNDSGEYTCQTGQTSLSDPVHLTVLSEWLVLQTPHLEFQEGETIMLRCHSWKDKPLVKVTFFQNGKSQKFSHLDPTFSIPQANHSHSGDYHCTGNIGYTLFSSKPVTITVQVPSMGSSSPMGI

Assay [14] concerns the target T10, recombinant human Fc gamma RIIa (CD32a) 131R (human, UniProt P12318 36-218).
T10 sequence (looked up): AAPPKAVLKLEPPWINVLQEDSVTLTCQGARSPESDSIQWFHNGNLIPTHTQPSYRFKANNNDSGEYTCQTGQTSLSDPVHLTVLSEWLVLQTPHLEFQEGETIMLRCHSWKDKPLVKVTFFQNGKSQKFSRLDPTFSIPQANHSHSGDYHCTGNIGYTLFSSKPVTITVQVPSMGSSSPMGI

The target in assay [15] is T4, recombinant human Fc gamma RIIb/c …. The source holds these as a separate data set.
The target in assay [16] is T8, recombinant human Fc gamma RI (CD64). This is another data set of the same source.
For assay [17], the target named is T10, recombinant human Fc gamma RIIa (CD32a) …. This is another data set of the same source.
Assay [18] deals with T11, recombinant cynomolgus monkey CD20 (cynomolgus monkey, UniProt M4ZHZ6 1-297).
T11 sequence: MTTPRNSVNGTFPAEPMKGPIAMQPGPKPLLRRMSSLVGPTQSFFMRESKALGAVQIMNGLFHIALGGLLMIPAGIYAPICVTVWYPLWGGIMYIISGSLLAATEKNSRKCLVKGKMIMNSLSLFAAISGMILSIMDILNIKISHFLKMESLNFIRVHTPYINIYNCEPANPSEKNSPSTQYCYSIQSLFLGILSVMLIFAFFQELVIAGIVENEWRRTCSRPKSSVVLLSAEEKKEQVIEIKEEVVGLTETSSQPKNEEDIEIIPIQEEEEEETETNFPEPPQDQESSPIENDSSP

Assay [19] has as its target T12, recombinant cynomolgus monkey CD19 (cynomolgus monkey, UniProt A0A2K5W8L9 20-292).
T12 sequence: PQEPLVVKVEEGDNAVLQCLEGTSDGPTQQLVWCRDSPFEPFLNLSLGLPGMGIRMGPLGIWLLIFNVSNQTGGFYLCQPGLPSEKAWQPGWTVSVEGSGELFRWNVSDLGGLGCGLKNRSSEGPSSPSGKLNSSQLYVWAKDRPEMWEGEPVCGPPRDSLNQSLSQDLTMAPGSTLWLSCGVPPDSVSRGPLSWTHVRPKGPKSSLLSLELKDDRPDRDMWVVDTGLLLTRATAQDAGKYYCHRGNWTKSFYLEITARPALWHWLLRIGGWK

Assay [20] deals with T13, recombinant human CD19 (human, UniProt P15391 20-291).
T13 sequence (looked up): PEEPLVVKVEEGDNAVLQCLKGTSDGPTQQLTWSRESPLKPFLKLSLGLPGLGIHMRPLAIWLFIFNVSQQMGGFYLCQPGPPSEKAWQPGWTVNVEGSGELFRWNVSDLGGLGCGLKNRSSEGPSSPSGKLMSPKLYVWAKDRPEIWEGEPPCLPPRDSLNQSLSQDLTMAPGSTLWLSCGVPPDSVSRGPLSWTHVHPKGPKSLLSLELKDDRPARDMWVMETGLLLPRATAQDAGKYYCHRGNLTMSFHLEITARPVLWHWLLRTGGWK

For assay [21], the target named is T14, recombinant human full-length CD20 (human, UniProt P11836 1-297).
T14 sequence (looked up): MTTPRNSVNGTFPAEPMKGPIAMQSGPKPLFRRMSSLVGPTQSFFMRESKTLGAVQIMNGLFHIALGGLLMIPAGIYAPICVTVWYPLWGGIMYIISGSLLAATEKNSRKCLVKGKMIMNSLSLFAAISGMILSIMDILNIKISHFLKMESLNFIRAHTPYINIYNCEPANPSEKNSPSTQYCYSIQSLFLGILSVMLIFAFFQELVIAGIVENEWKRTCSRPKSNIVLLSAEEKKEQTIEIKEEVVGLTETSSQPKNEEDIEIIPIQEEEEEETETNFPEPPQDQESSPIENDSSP

Assay [22] has as its target T5, recombinant human Fc gamma RIIIb (CD16b). This is another data set of the same source.
In assay [23] the target is T6, recombinant human Fc gamma RIIIa …. This is another data set of the same source.
Assay [24] addresses T7, recombinant human Fc gamma RIIIa …. This is another data set of the same source.

T8 sequence (P12314 16-288 limits assumed): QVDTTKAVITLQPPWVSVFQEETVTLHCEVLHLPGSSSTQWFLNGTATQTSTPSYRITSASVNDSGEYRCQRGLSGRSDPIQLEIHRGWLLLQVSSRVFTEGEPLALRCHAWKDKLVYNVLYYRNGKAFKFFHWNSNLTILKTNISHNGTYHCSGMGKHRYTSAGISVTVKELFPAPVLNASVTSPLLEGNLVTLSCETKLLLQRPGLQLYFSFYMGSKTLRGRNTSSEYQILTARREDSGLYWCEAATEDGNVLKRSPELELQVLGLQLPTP
T6 sequence (P08637 17-208 limits assumed): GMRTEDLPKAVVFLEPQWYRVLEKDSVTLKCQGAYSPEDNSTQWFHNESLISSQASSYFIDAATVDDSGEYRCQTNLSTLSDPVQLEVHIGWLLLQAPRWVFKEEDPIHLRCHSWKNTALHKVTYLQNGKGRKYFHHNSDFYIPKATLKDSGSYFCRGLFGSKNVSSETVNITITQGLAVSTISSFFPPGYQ
T1 sequence (Q8SPW2 17-208 limits assumed): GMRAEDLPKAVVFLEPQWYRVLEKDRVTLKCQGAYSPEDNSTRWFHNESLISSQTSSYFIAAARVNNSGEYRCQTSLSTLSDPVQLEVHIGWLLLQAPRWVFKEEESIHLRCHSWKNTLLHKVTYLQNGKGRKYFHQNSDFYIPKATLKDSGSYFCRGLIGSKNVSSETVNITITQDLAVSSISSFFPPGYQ
T5 sequence (O75015 17-200 limits assumed): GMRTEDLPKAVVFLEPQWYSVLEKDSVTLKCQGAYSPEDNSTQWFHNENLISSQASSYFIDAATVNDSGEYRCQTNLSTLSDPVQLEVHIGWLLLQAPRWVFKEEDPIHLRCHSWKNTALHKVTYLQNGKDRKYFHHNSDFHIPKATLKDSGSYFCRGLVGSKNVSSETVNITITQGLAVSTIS
T7 sequence (P08637 17-208 F176V limits assumed): as the sequence (P08637 17-208 limits assumed) above, with F160V counted along it

B1: B19c66AAC9 (antibody, human IgG1, kappa)
light: not shown
heavy: QVQLQQSGAELVRPGSSVKISCKASGYAFSSYWMNWVKQRPGQGLEWIGQIWPGDGDTNYNGKFKGKATLTADESSSTAYMQLSSLASEDSAVYFCARRETTTVGRYYYAMDYWGQGTTVTVSSASTKGPSVFPLAPSSKSTSGGTAALGCLVKDYFPEPVTVSWNSGALTSGVHTFPAVLQSSGLYSLSSVVTVPSSSLGTQTYICNVNHKPSNTKVDKKVEPKSCDKTHTCPPCPAPKRRGGPSVFLFPPKPKDTLMISRTPEVTCVVVDVSHEDPEVKFNWYVDGVEVHNAKTKPREEQYNSTYRVVSVLTVLHQDWLNGKEYKCKVSNKALPAPIEKTISKAKGQPREPQVYVLPPSRDELTKNQVSLLCLVKGFYPSDIAVEWESNGQPENNYLTWPPVLDSDGSFFLYSKLTVDKSRWQQGNVFSCSVMHEALHNHYTQKSLSLSPGK
chain: CPPCPAPEDEGGPSVFLFPPKPKDTLMISRTPEVTCVVVDVSHEDPEVKFNWYVDGVEVHNAKTKPREEQYNSTYRVVSVLTVLHQDWLNGKEYKCKVSNKALPAPIEKTISKAKGQPREPQVYVYPPSRDELTKNQVSLTCLVKGFYPSDIAVEWESNGQPENNYKTTPPVLDSDGSFALVSKLTVDKSRWQQGNVFSCSVMHEALHNHYTQKSLSLSPGK
The Kd is a measure of binding affinity in units of concentration. Take B1: binding in assay [1] was characterised by a dissociation constant (Kd) of 21 nM.

B2: HB2198 (bispecific antibody, human IgG1, kappa)
heavy 1: QVQLVQSGGGVVQPGRSLRLSCAASGVSLPDYGVSWVRKAPGKGLEWVAVIWGSETTYYNSALKSRFTISRDNSKNTLYLQMSSLRAEDTAVYYCAKHYYYGGSFAMDYWGQGTLVTVSSASTKGPSVFPLAPSSKSTSGGTAALGCLVKDYFPEPVTVSWNSGALTSGVHTFPAVLQSSGLYSLESVVTVPSSSLGTQTYICNVNHKPSNTKVDKKVEPKSCTDWSPYADQSIKVRISLKSALGDKAYEWNDNEMYLFRSSVAYAMRQYFLKVKNQMILFGEEDVRVANLKPRISFNFFVTAPKNVSDIIPRTEVEKAIRMSRSRINDAFRLNDNSLEFLGIQPTLGPPNQPPVSTSTSPTRSMAPGAVHLPQPVSTRDKTHTCPPCPAPELLGGPDVFLFPPKPKDTLMISRTPEVTCVVVDVSHEDPEVKFNWYVDGVEVHNAKTKPREEQYNSTYRVVSVLTVLHQDWLNGKEYKCKVSNKALPAPEEKTISKAKGQPREPQVCTLPPSRDELTKNQVSLSCAVKGFYPSDIAVEWESNGQPENNYKTTPPVLDSDGSFFLVSKLTVDKSRWQQGNVFSCSVMHEALHNRFTQKSLSLSPG
heavy 2: QIVLSQSPAILSASPGEKVTMTCRASSSVSYIHWFQKKPGSSPKPWIYATSNLASGVPVRFSGSGSGTSYSLTISRVEAEDAATYYCQQWTSNPPTFGGGTKVEIKSSASTKGPSVFPLAPSSKSTSGGTAALGCLVKDYFPEPVTVSWNSGALTSGVHTFPAVLQSSGLYSLKSVVTVPSSSLGTQTYICNVNHKPSNTKVDKKVEPKSCDKTHTCPPCPAPELLGGPDVFLFPPKPKDTLMISRTPEVTCVVVDVSHEDPEVKFNWYVDGVEVHNAKTKPREEQYNSTYRVVSVLTVLHQDWLNGKEYKCKVSNKALPAPEEKTISKAKGQPREPQVYTLPPCRDELTKNQVSLWCLVKGFYPSDIAVEWESNGQPENNYKTTPPVLDSDGSFFLYSKLTVDKSRWQQGNVFSCSVMHEALHNHYTQKSLSLSPG
light 1: DIQMTQSPSSLSASVGDRVTITCRASQDISKYLNWYQEKPGKAIKLLIYHTSRLHSGVPSRFSGSGSGTDFTLTISSLQPEDFATYYCQQGATLPYTFGPGTKLEIKRTVAAPSVFIFPPSDEQLKSGTASVKCLLNNFYPREAKVQWKVDNALQSGNSQESVTEQDSKDSTYSLSSTLTLSKADYEKHKVYACEVTHQGLSSPVTKSFNRGEC
light 2: QVQLQQPGAELVKPGASVKMSCKASGYTFTSYNMHWVKETPGRGLEWIGAIYPGNGDTSYNQKFKGKATLTADKSSSTAYMQLSSLTSEDSAVYYCARSTYYGGDWYFNVWGAGTLVTVSSASVAAPSVFIFPPSDEQLKSGTASVECLLNNFYPREAKVQWKVDNALQSGNSQESVTEQDSKDSTYSLSSTLTLSKADYEKHKVYACEVTHQGLSSPVTKSFNRGEC
B2: the Kd in [2] was found to be 2 nM; in assay [3], 4 nM; in assay [4] it was 3.4 nM; in assay [5], 1.76 nM; in assay [6] it was 305 nM; in assay [7] it was 218 nM. The Kd in assay [8] is 2.2 nM; in [9], less than 2 nM; in [10], less than 2 nM; in [11] it was less than 2 nM; in assay [12], less than 0.02 nM; in assay [13], less than 2 nM. Besides, the dissociation constant (Kd) in assay [14] was less than 2 nM; in [15], 283 nM; in assay [16], less than 0.02 nM; in assay [17], 128 nM; in assay [18] it was 1.4 nM; in assay [19] it was 410 nM. The Kd in assay [20] stood at 1.5 nM; in assay [21] it was 0.2 nM; in [22], 95 nM; in [23], 15.7 nM; in assay [24], 4.19 nM.
